Where a chain is given by its changes, count along the chain named. Names and notes keep the numbering of the source.
B1: RlArDHT (L-arabinonate dehydratase from Rhizobium leguminosarum bv. trifolii) (Rhizobium leguminosarum bv. trifolii WSM2304) (protein)
chain: MKKKAEWPRKLRSQEWYGGTSRDVIYHRGWLKNQGYPHDLFDGRPVIGILNTWSDMTPCNGHLRELAEKVKAGVWEAGGFPLEVPVFSASENTFRPTAMMYRNLAALAVEEAIRGQPMDGCVLLVGCDKTTPSLLMGAASCDLPSIVVTGGPMLNGYFRGERVGSGTHLWKFSEMVKAGEMTQAEFLEAEASMSRSSGTCNTMGTASTMASMAEALGMALSGNAAIPGVDSRRKVMAQLTGRRIVQMVKDDLKPSEIMTKQAFENAIRTNAAIGGSTNAVIHLLAIAGRVGIDLSLDDWDRCGRDVPTIVNLMPSGKYLMEEFFYAGGLPVVLKRLGEAGLLHKDALTVSGETVWDEVKDVVNWNEDVILPAEKALTSSGGIVVLRGNLAPKGAVLKPSAASPHLLVHKGRAVVFEDIDDYKAKINDDNLDIDENCIMVMKNCGPKGYPGMAEVGNMGLPPKVLKKGILDMVRISDARMSGTAYGTVVLHTSPEAAVGGPLAVVKNGDMIELDVPNRRLHLDISDEELARRLAEWQPNHDLPTSGYAFLHQQHVEGADTGADLDFLKGCRGNAVGKDSH
notes: full length with N-terminal Strep-tag II (WSHPQFEK), codon-optimized, pBAT4, E. coli BL21(DE3); 579 residues without tag; [2Fe-2S] and Mg2+; homotetramer
B2: L-arabinonate dehydratase from Rhizobium leguminosarum bv. trifolii, variant H579L (enzyme, UniProt B5ZZ34 1-579, looked up)
chain: B1 chain with H579L
modifications: KCX129 (6N-carboxylysine)
notes: L-arabinonate dehydratase (RlArDHT) from Rhizobium leguminosarum bv. trifolii, gene araD, GenBank KT260159, codon-optimised synthetic gene; His579 is the last C-terminal residue, changed to Leu; Holds a [2Fe-2S] cluster and Mg2+ in each chain; co-crystallised with 2-oxobutyrate (seen in chain D only); The introduction calls the same variant H588L, which may count the N-terminal tag residues; also …
B3: RlArDHT (L-arabinonate dehydratase from Rhizobium leguminosarum bv. trifolii) (Rhizobium leguminosarum bv. trifolii WSM2304; H579L) (protein)
chain: B1 chain with H579L
notes: as for B1

How the values were obtained:
[1] = biological target: T1, RlArDHT (L-arabinonate dehydratase from Rhizobium leguminosarum bv. trifolii) (Rhizobium leguminosarum, UniProt B5ZZ34, H579L); test: X-ray crystal structure, […] Å, co-crystallized; type: binding; settings: product analog; active site of chain D, coordinated to Mg2+; [2Fe-2S] present; pH 8.5, 20 °C
T1 construct: gene araD; full length with N-terminal Strep-tag II (WSHPQFEK), codon-optimized, pBAT4, E. coli BL21(DE3); 579 residues without tag; [2Fe-2S] and Mg2+; homotetramer
T1 sequence (B5ZZ34 whole entry H579L): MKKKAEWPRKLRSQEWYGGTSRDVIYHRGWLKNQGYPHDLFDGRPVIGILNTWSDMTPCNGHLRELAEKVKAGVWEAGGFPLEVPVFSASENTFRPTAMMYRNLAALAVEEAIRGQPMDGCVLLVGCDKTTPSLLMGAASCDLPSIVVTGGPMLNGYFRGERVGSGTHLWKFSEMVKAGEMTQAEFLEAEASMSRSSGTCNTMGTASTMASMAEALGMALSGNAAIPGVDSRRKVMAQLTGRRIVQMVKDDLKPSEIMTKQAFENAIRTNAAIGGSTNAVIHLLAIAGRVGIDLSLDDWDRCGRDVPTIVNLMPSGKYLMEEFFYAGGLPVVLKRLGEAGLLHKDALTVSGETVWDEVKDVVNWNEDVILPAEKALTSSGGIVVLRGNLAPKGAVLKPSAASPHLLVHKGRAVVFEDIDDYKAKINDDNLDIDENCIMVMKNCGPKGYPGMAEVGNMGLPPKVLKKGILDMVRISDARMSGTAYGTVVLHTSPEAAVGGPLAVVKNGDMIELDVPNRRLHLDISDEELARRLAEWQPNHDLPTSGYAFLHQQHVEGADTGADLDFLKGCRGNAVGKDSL

purified protein [2] = substrate: C[C@@H](O)[C@H](O)[C@H](O)[C@@H](O)C(=O)O; test: purified protein; type: biochemical, Rhizobium leguminosarum; settings: pH 8.0, 30 °C, 50 mM Tris-HCl, 10 mM MgCl2
purified protein [3] = substrate: O=C(O)[C@H](O)[C@@H](O)[C@H](O)CO; test: purified protein; type: biochemical, Rhizobium leguminosarum; settings: pH 8.0, 30 °C, 50 mM Tris-HCl, 10 mM MgCl2
purified protein [4] = substrate: O=C(O)[C@H](O)[C@@H](O)[C@H](O)[C@H](O)CO; test: purified protein; type: biochemical, Rhizobium leguminosarum; settings: pH 8.0, 30 °C, 50 mM Tris-HCl, 10 mM MgCl2
purified protein [5] = substrate: O=C(O)[C@H](O)[C@@H](O)[C@@H](O)[C@H](O)CO; test: purified protein; type: biochemical, Rhizobium leguminosarum; settings: pH 8.0, 30 °C, 50 mM Tris-HCl, 10 mM MgCl2
purified protein [6] = substrate: O=C(O)[C@H](O)[C@@H](O)[C@@H](O)CO; test: purified protein; type: biochemical, Rhizobium leguminosarum; settings: pH 8.0, 30 °C, 50 mM Tris-HCl, 10 mM MgCl2
[7] = biological target: the molecule itself; test: crystal structure; H579L co-crystallised with 2-oxobutyrate, hanging-drop vapor diffusion at 20 °C; 14% (w/v) PEG 10000, 200 mM ammonium acetate, 100 mM Tris pH 8.5; molecular replacement with PDB 5J84

| Molecule | X-ray crystal structure, 2.4 Å, co-crystallized [1] | Km (purified protein [2]) | kcat (purified protein [2]) | kcat/Km (purified protein [2]) | Km (purified protein [3]) | kcat (purified protein [3]) | kcat/Km (purified protein [3]) | Km (purified protein [4]) | kcat (purified protein [4]) | kcat/Km (purified protein [4]) | Km (purified protein [5]) | kcat (purified protein [5]) | kcat/Km (purified protein [5]) | Km (purified protein [6]) | kcat (purified protein [6]) | kcat/Km (purified protein [6]) | stoichiometry N [7] |
| --- | --- | --- | --- | --- | --- | --- | --- | --- | --- | --- | --- | --- | --- | --- | --- | --- | --- |
| CCC(=O)C(=O)O [2-oxobutyrate] | 2-Oxobutyrate was refined inside the substrate-binding cavity in chain D of the H579L variant |  |  |  |  |  |  |  |  |  |  |  |  |  |  |  |  |
| B1 |  | 240 ± 70 µM | 17.5 ± 1 s⁻¹ | 73300 ± 18300 M⁻¹ s⁻¹ | 1300 ± 300 µM | 0.413 ± 0.0217 s⁻¹ | 317 ± 66.7 M⁻¹ s⁻¹ | 5700 ± 1500 µM | 6.5 ± 0.833 s⁻¹ | 1130 ± 150 M⁻¹ s⁻¹ | 740 ± 150 µM | 11.5 ± 0.5 s⁻¹ | 15500 ± 2330 M⁻¹ s⁻¹ | 1200 ± 200 µM | 11.3 ± 0.5 s⁻¹ | 9500 ± 1170 M⁻¹ s⁻¹ |  |
| B2 |  |  |  |  |  |  |  |  |  |  |  |  |  |  |  |  | 4 |
| B3 |  | 820 ± 60 µM | 21.5 ± 0.5 s⁻¹ | 26200 ± 1330 M⁻¹ s⁻¹ | 1200 ± 200 µM | 0.107 ± 0.00333 s⁻¹ | 88.3 ± 11.7 M⁻¹ s⁻¹ | 5400 ± 900 µM | 0.667 ± 0.05 s⁻¹ | 125 ± 11.7 M⁻¹ s⁻¹ | 900 ± 150 µM | 1.48 ± 0.0667 s⁻¹ | 1580 ± 183 M⁻¹ s⁻¹ | 1000 ± 200 µM | 2 ± 0.0833 s⁻¹ | 2000 ± 333 M⁻¹ s⁻¹ |  |

Source: article PMC11316719, “Unveiling the importance of the C-terminus in the sugar acid dehydratase of the IlvD/EDD superfamily” (Applied Microbiology and Biotechnology, 2024)
